Test results taken from patent US11622990.

Molecular target: Recombinant human glucose-regulated protein GRP78 (human) (UniProt P11021)
Test: SPR (Biacore T200), recombinant human GRP78 coupled to a CM5 chip, peptide injected at 0.3125-20 µM

Chain of Recombinant human glucose-regulated protein GRP78 (human) (P11021 19-654 limits assumed): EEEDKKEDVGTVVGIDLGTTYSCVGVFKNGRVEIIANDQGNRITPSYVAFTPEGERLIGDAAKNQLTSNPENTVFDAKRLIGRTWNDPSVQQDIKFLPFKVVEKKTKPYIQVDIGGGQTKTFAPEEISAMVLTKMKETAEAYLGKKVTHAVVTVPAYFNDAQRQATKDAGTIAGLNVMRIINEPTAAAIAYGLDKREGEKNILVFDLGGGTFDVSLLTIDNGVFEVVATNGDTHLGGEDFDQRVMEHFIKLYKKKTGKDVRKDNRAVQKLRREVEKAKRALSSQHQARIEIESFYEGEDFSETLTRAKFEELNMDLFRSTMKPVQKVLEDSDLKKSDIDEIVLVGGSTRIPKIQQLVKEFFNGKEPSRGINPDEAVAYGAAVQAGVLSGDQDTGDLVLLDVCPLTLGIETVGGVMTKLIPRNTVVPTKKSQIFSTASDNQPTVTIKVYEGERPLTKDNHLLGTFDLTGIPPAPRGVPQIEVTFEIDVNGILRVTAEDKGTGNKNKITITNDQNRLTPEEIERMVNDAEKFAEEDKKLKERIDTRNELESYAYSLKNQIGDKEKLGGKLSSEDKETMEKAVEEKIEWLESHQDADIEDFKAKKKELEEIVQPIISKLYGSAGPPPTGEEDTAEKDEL

B1: SVAP (D-configuration peptide DS-DN-DT-DR-DV-DA-DP) (peptide)
peptide: SNTRVAP
modifications: all seven residues are D-configuration amino acids (^DS^DN^DT^DR^DV^DA^DP)
- Kd: 5.22 µM
- koff: 0.0283 s⁻¹
